# Measured values taken from paper PMC5159797.
# Legend:
# MBP-Kif2b-NT = test: GST pull-down, anti-MBP blot quantified; details: purified MBP-Kif2b deletions; parent: 1.0; read off a plot
# MBP-Kif2b-CT = test: GST pull-down, anti-MBP blot quantified; details: purified MBP-Kif2b deletions; n = 3; parent: 1.0; read off a plot
ratio to parent (MBP-Kif2b-NT),ratio to parent (MBP-Kif2b-CT),Substance
1.1,0.42,GST-SKAP (from UniProt Q9Y448) S232A; S237A; T294A
15,0.87,GST-SKAP (from UniProt Q9Y448) S232E; S237E; T294E
